Measurements reported in US20120135916A1 (SIEMENS HEALTHCARE DIAGNOSTICS, published 2012).
Bridge positions count the residues as written; N and C are the ends. Ends that are not written are not given here. I, II: the chains in the order shown.

Target: insulin degradation enzyme (IDE) (UniProt P14735 42-1019, limits assumed)
Assay: cell-based or functional assay

| Binder | IDE Inhibition (90% inhibition at) [µg/mL] |
| --- | --- |
| VVAGAFVHFHGVSNLQEFRFMIGGGCSEEDAL [R2 CTF32] | 40 |
| R1 CTF32 R2 CTF32 heterodimer (disulfide I:26-II:26) peptide 1: VVAAAFVHFYGVSNLQEFRYGLEGGCTDDTLL peptide 2: VVAGAFVHFHGVSNLQEFRFMIGGGCSEEDAL | 1.2 |
| VVAGAFVHFHGVSNLQEFRFMIGGGCSEEDAL (also: homodimer: inter-chain disulfide between Cys26 of both mer units) [R2 CTF32 R2 CTF32 homodimer] | 19 |
| R1 CTF25 R2 CTF25 heterodimer (disulfide I:19-II:19) peptide 1: HFYGVSNLQEFRYGLEGGCTDDTLL peptide 2: HFHGVSNLQEFRFMIGGGCSEEDAL | 0.6 |
| HFYGVSNLQEFRYGLEGGCTDDTLL [R1 CTF25] | 12.4 |
| VVAAAFVHFYGVSNLQEFRYGLEGGCTDDTLL (also: homodimer: inter-chain disulfide between Cys26 of both mer units) [R1 CTF32 R1 CTF32 homodimer] | 22.5 |
| VVAAAFVHFYGVSNLQEFRYGLEGGCTDDTLL [R1 CTF32] | 50 |
| HFHGVSNLQEFRFMIGGGCSEEDAL [R2 CTF25] | 9 |
